In patent publication US20110021757A1 (NATIONAL INSTITUTE OF AGROBIOLOGICAL SCIENCES, published 2011):

Target: T1, human transferrin (human, UniProt P02787 20-698)
T1 construct: The assay paragraphs say only 'transferrin (Biogenesis)'; also called transferrin (Biogenesis); antigen
Assay: ELISA, transferrin-coated plate, silk gland extract, anti-mouse Ig-HRP detection
Description: Measurement of the activity of a recombinant antibody against an antigen by enzyme-linked immunosorbent assay (ELISA) was carried out by the following procedure. […] This was homogenized using a glass homogenizer and centrifuged at 14,000 rpm for 20 minutes, and then the supernatant was diluted five times (40 mg/ml) and ten times ([…]) in Tris buffer. These samples and the undiluted sample (original concentration: 200 mg/ml) were used as samples for ELISA measurement. Furthermore, similar procedures were used to prepare samples of the Ser1GAL4 strain silkworms for ELISA measurement as a negative control. 100 μl of the samples for ELISA measurement thus prepared were dispensed into a microtiter plate (NUNC) presensitized with 100 μg/well of transferrin (Biogenesis), and the plate was shaken at room temperature for two hours. Next, the ELISA measurement samples were removed from the wells, and the wells were washed three times with 200 μl of PBS-T. Into each well, 100 μl of a solution prepared in advance by diluting a rabbit anti-mouse Ig-HRP-labeled antibody 100-fold with PBS (150 mM NaCl, 10 mM phosphate buffer, pH 7.4) was dispensed, and the plate was shaken at room temperature for six hours. […] After that, the absorbance at 450 nm was measured using a model 550 microplate reader (BioRad).

T1 sequence (P02787 20-698 limits assumed): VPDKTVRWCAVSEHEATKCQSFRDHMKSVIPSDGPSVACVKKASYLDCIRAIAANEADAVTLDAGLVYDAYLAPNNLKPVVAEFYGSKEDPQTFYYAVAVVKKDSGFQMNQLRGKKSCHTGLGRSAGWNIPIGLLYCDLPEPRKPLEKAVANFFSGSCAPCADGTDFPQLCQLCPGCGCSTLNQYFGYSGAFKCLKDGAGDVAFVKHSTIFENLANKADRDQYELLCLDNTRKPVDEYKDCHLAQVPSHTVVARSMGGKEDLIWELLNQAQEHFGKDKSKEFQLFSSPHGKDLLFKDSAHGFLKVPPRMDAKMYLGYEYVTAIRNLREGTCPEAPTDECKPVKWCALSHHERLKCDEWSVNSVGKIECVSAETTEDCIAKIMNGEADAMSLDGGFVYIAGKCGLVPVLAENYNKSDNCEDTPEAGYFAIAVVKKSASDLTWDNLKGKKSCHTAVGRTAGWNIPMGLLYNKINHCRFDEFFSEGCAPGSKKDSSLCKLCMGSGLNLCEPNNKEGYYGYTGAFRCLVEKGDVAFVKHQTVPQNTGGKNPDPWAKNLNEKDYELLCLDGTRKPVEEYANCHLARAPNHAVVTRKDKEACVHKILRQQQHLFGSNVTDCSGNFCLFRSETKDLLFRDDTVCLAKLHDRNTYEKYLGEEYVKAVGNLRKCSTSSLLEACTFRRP

- binding result: binds
B1: scFv antibody from a mouse anti-human transferrin antibody (anti-transferrin scFv antibody) (scFv)
scFv: LEVQLQESGPDLVKPSQSLSLTCTVTGYSITSGYSWHWIRQFPENKLEWLGYIHSSGATNYSPSLKSRFSITRDTSKNQFFLQLNSVTTEDTATYYCARDGYSPPYAMDYWGQGTTVTVSSGGGGSGGGGSGGGGSDIELTQSPSSLAVSVGEKVTMTCKSSQSLLYSTNQKNYLAWYQQKPGQSPKLLIYWASTRESGVPDRFTGSGSGTDFTLTISSVKAEDLSVYYCQQYYSYPPTFGSGTKLEIK
notes: The signal piece is left out here as a secretion signal; Tested as a crude middle silk gland extract of Ser1GAL4/UASFvaTf silkworms, not purified; also called aTf; FvaTf
